The results in this text go back to paper PMC516023 (2004).

B1: HIV-1 Vpr, wild type [HIV-1] / GST-fused di-W peptide WWSFKSV (GST-B4) (parent complex)
chain 1: MEQAPEDQGPQREPHNEWTLELLEELKNEAVRHFPRIWLHGLGQHIYETYGDTWAGVEAIIRILQQLLFIHFRIGCRHSRIGVTRQRRARNGASRS
chain 2: WWSFKSV

In the assay the parent is B1. Nature of the assay: GST pull-down, autoradiography scanning; parent: 100; read off a plot.
chain 1 I63K: the percent of parent was roughly 80%. In the case of chain 1 L23F it was roughly 10%; in that of chain 1 E21K, roughly 7%; in that of chain 1 R80A, roughly 88%. The value for chain 1 E25K was roughly 86%; that for chain 1 R62P was roughly 4%; that for chain 1 F34I was roughly 80%. The value for chain 1 R87A, chain 1 R88A was roughly 71%; that for chain 1 A30F was roughly 6%.
